Key:
[1] = molecular target: E. coli type I Zorya ZorB, wild type (EcZorB) (E. coli); assay: cryo-EM structure
[2] = molecular target: E. coli type I Zorya ZorA, wild type (EcZorA) (E. coli); assay: cryo-EM structure

Substance	stoichiometry N [1]	stoichiometry N [2]
E. coli type I Zorya ZorB, wild type (EcZorB) (natural protein)	2	
E. coli type I Zorya ZorA, wild type (EcZorA) (natural protein)		5

— paper doi:10.1101/2023.12.18.572097
